The values below come from PMC12591191, “SIRT6 Lysine‐Demyristoylates ATF2 to Ameliorate Vascular Injury via PRKCD/VE‐Cadherin Pathway Regulating Vascular Endothelial Barrier” (Advanced Science, 2025).

As a reminder, the Kd is the free concentration of one partner at which half of the binding sites on the other are occupied at equilibrium, for simple one-to-one binding.

Experiment in all cases: BLI; Octet Red96, 96 well plates, PBS-T buffer (1X PBS, 0.05% tween-20); 120 µM biotinylated peptide attached to the sensor; analytes (SIRT6/SIRT6 mutants) from 0.18 to 5.5 µM; also run with cofactors (5 mM Mg2+, Zn2+, ATP, ADP, AMP, cAMP, NAD+)
Conditions in all cases: both partners purified
For orientation: Biolayer interferometry detects binding as a change in optical thickness at a sensor tip.

Assay [1] concerns the target T1, Wild-type SIRT6 (Sirtuin 6) (human, UniProt Q8N6T7 1-355).
T1 construct: human SIRT6, full length (1-355aa), from pUC57-SIRT6 into pET28a; no tag cleavage is described; also called SIRT6 WT; source: E. coli ArcticExpress (DE3), purified (Ni Sepharose); not shown: His-tag, N-terminal, kept; Flag, C-terminal, kept

For the next assay, the target named is T2, SIRT6 R65A (human, UniProt Q8N6T7 1-355, R65A).
T2 construct: human SIRT6, full length (1-355aa), pET28a-SIRT6R65A; also called dSIRT6 variant; source: E. coli ArcticExpress (DE3), purified (Ni Sepharose); not shown: His-tag, N-terminal, kept; Flag, C-terminal, kept

A further assay concerns the target T3, SIRT6 S56Y (human, UniProt Q8N6T7 1-355, S56Y).
T3 construct: human SIRT6, full length (1-355aa), pET28a-SIRT6S56Y; also called dSIRT6 variant; source: E. coli ArcticExpress (DE3), purified (Ni Sepharose); not shown: His-tag, N-terminal, kept; Flag, C-terminal, kept

A further assay has as its target T4, SIRT6 H133Y (human, UniProt Q8N6T7 1-355, H133Y).
T4 construct: human SIRT6, full length (1-355aa), pET28a-SIRT6H133Y; also called dSIRT6; dSIRT6 (H133Y); source: E. coli ArcticExpress (DE3), purified (Ni Sepharose); not shown: His-tag, N-terminal, kept; Flag, C-terminal, kept

Where no end group is shown, it is not given here. The star is where a group is joined. Biotin = O=C1N[C@H]2[C@H](CS[C@H]2CCCCC(=O)*)N1; Myristoyl = CCCCCCCCCCCCCC(=O)*

T4 sequence (Q8N6T7 whole entry H133Y): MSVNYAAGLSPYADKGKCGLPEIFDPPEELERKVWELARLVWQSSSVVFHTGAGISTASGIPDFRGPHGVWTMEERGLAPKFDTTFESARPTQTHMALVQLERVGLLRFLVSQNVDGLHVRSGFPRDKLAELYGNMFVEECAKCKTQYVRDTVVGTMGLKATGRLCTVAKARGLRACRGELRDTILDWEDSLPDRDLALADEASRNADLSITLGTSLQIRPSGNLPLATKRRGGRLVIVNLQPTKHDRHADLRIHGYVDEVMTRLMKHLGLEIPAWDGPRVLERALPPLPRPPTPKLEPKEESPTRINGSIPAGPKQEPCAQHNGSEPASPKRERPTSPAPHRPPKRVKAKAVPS
T1 sequence (Q8N6T7 whole entry): as the sequence (Q8N6T7 whole entry H133Y) above, with Y133H counted along it
T3 sequence (Q8N6T7 whole entry S56Y): as the sequence (Q8N6T7 whole entry H133Y) above, with S56Y, Y133H counted along it
T2 sequence (Q8N6T7 whole entry R65A): as the sequence (Q8N6T7 whole entry H133Y) above, with R65A, Y133H counted along it

B1: B-H3K9^Myr-5R (biotin-KQTARK^MyrSTGGKARRRRR) (peptide)
peptide: Biotin-KQTARK(Myristoyl)STGGKARRRRR
notes: histone H3 N-terminal stretch around K9; five arginine residues added at the C-terminus so that the peptide is soluble in water; also called myristoylated peptide; source: synthetic peptide (Boster Biological Technology)
As to B1, the Kd in assay [1] stood at 8.1 ± 0.96 µM. In addition, the binding result with SIRT6 R65A, in the assay with SIRT6 S56Y and with SIRT6 H133Y was “binds” in each case.
